Measured values taken from patent US7303752B2, “Hookworm vaccine” (The George Washington University, priority 2001, dated 2007).

B1: Ay-ASP-1: A. ceylanicum secreted protein 1, SEQ ID NO: 56; Pichia pastoris expressed (protein, listed as Ancylostoma ceylanicum)
chain: FSPVVVISVVLTVAFCDASPVKASFGCSNSGITDSDRQAFLDFHNNARRRVAQGVEDNKSGKLNPAKNMYKLDWDCEMEQKLQDAIQSCPGGFAGIQGVAQNIISWSGSGGFPNPSEKINSTLASWWGGAKNNGVASDNKYTGGGLYAFSNMVFSETTKLGCAYKVCGTKLTLSCYNGIGYMTGAPMWETGQACKAGADCTTFKNSGCEDGLCTKGADVPETNQQCPSNTGMTDSVRDTFLSLHNEFRSSVARGLEPDALGGNAPKASKMLKMVYDCEVEASAIRHGNKCVYQHSHGDERPGLGENIYKTSIVKFEKNKAAKQASQLWWNELKEFGVGPSNMLTDAWNRPNMQIGHYTQMAWESTYKLGCAVIFCNDFTFGVCQYGPGGNYMNHLIYTIGQPCSECEATATCSVTEGLCSAP
B2: Ay-MTP-1: A. ceylanicum astacin protease antigen, SEQ ID NO: 60 (protein, listed as Ancylostoma ceylanicum)
chain: MRVFLLVLLLAICASAGFFDTKLGEKIKKTLGKIKAALNGTLLMKIREKFIALREKIKAKLKLSPARKALLGEIMKHIIKIKKDKIQEKGDSIEEINSKSAIGELLYQGDIVLTNKQAQEIVDIEGDENDRGKRQAFRDRNYPRTLWSKGVYYYFHGNATPEVRSVFTKGARLWMKDTCIDFFESNSAPDRIRVFKEQGCWSYVGRIGGQQDLSLGKGCESVGTAAHEIGHAIGFYHTHSRHDRDNFITFNAQNVKPDWLDQFTKQTPATNENYGITYDYGSIMHYGANSASANGQPSMVPFDPKYVETLGSPIISFYELLMINKPYECTKNCDPNTSAQCKMGGFPHPRDCGRCICPSGYGGQLCDQKPSGCGSILQATAQYQNLHDKRGNEAAGQRPREDMDFCYYWITAPQGSRIEIKIADLSRGAAVDGCQYWGVEIKTHADQRLTGYRFCAPEDVGRTLVSNSNIVPIITYNFYATTVDIQYRIVGGNVGGPRPQPQPNSNCVDNEQCATLIRTKNFCQSRSFTESVKRGLCPKACGFCR
B3: Ay-ASP-2: A. ceylanicum secreted protein 2, SEQ ID NO: 58; Pichia pastoris expressed (protein, listed as Ancylostoma ceylanicum)
chain: VLVPLLVLLAVSVDANSVRCGNNGMTDEARQKFLDMHNGYRSQVAKGQAKDALSGNAPKAAKMKKMVYDCGVESTAMQNAKKCVFTHSHMKGLGENIWMTTAREMDKVKSAEQASQGWFSELAEYGVGPENKLTMQLWNRPNTQIGHYTQMVWQDTYKLGCYVEWCSSMTYGVCQYSPQGNMMNSIIYEKGNPCTQDSDCGSNARCTADKALCIVHG

Tested on: A. ceylanicum
Test: Hamster vaccine trial Ham V-IV with Quil A, oral challenge with 100 A. ceylanicum L3
Assay type: in vivo, Syrian hamster
Details: for Adult Hookworms, Mean: 10 hamsters per group, Quil A control 48.9; for Spleen weights, Median: Quil A control 0.45; for Spleen weights, Mean: Quil A control 0.47; for Adult Hookworms, Median: Quil A control 53.0; for Percent reduction (EPG) relative to Quil A / Percentage Hb Increase Relative to control (QuilA) / Percentage Reduction (adult hookworms) Relative to Quil A: hamster, in vivo; for EPG Mean ± SD: hookworm eggs per gram, two cages per group; for Body Weight % Reduction, Median / Body Weight % Reduction, Mean / Hb % change, Mean / Hb % change, Median: necropsy relative to time of infection; for Body Weight % Reduction, Median: Quil A control 7.8; for Body Weight % Reduction, Mean: Quil A control 7.9; for Hb % change, Mean / Hb % change, Median: minus = decrease; for Hb % change, Mean: Quil A −29.7; for Hb % change, Median: Quil A −32.5
Procedure: Brief Outline of Study Sections: Purpose bred Syrian hamsters are randomized into eight groups. Seven groups will receive candidate vaccines: ASP-1, ASP-2, MTP, and Irradiated larvae. One group receives only the adjuvant (Quil A) as experimental control. Each animal's specific antibody response is evaluated by direct ELISA using serum taken prior to the infective challenge. […] Quantitative ova counts, used to evaluate worm burden, are made from fecal samples collected twice after larval challenge. Also, hemoglobin levels will be tested to detect anemia caused by the blood loss during adult hookworm infection. The final report will evaluate the data and provide conclusions regarding each vaccine's effectiveness both in terms of worm burden and blood loss.
Test and Control Identification: The antigens are ASP-1, ASP-2, and MTP. The antigen-adjuvant combinations will be ASP-1+Quil A, ASP-2+Quil A, MTP+Quil A, ASP-1+ASP-2+Quil A, ASP-2+MTP+Quil A and ASP-1+MTP+Quil A. One group, which receives irradiated L3 serve as the positive control. The negative control group will receive only Quil A. Details about the antigen and the adjuvants will be included in the study records when they become available.
The test articles are diluted to provide a dose of 0.025 mg of antigen in 200 ul of antigen-adjuvant mixture per animal per injection. All injections will be performed intramuscularly (i.m). The prescribed volume dose information is recorded by Dr. Ghosh. Fresh preparation of antigens will be made the day of injection.
Administration of Test and Control Articles: The vaccines and adjuvant are administered intramuscularly (IM) three (3) times beginning when the hamsters are 28±2 days old. The vaccines are boosted at 21 days (3 weeks) intervals.
Challenge Infection: Ancylostoma ceylanicum larvae are cultured from the eggs collected in the feces of infected hamsters by qualified technicians in the Dr. Hotez lab. All hookworms in the infective challenge are approximately equal age (10±5 days). The species identity of the infective larva dose is validated, using PCR DNA amplification and specific oligonucleotide primers. All hamsters are infected by orally with the same dose of 100+/−10 3rd stage larvae of A. celyanicumfs. Larval challenge occurs on the same day for all hamsters (at age 82±2 days). Clinical Observations: The hamsters are observed daily and are weighed at least every 7 days post-challenge. Hamsters that develop signs of moderate to severe anemia, or develop a loss of body weight greater than 15% are observed more frequently. Prior to larvae infection and at least one time every 7-10 days, blood samples are collected from all hamsters. Blood withdrawal should be approximately equal in amount from all hamsters and at this time, the stool will be checked for blood.
A pre-vaccination blood sample will be examined for Hemoglobin; a sample of serum will be frozen. A hemoglobin test is performed 6-10 days and 12-18 days post-challenge. Samples of serum will be collected from each hamster; pre-immune, after 2 boosts, and after larval challenge. These samples will be labeled with unique identifiers (nature of the specimen, study-hamster number and collection date) and frozen for possible future analysis.
Quantitative Egg Counts (QEC): One week following parasite dosing, fecal examination for ova begins and will be repeated once a week until the study is terminated. The ova count method will be performed according to the SOP, which is a modification of the McMaster technique (Veterinary Clinical Pathology, 6th ed., 1994, page 9-10). The test will be performed the same way each time in order to quantitate the ova count. Fecal specimens from the hamsters will be identified by the hamster study number and the unique hamster identification number. The ova are counted in a McMaster chamber under a binocular microscope and recorded. […]

| Molecule | Adult Hookworms, Mean | Spleen weights, Median | Spleen weights, Mean | Adult Hookworms, Median | Percent reduction (EPG) relative to Quil A [%] | Percentage Hb Increase Relative to control (QuilA) [%] | Percentage Reduction (adult hookworms) Relative to Quil A [%] | EPG Mean ± SD | Body Weight % Reduction, Median [%] | Body Weight % Reduction, Mean [%] | Hb % change, Mean [%] | Hb % change, Median [%] |
| --- | --- | --- | --- | --- | --- | --- | --- | --- | --- | --- | --- | --- |
| B1 | 30.9 | 0.48 (0.48) ± 0.10 gr | 0.48 (0.48) ± 0.10 gr | 36.0 | 59.0 | 32.7 | 36.8 | 912.5 ± 17.7 | 4.4 | 3.4 | −13.3 | −20.0 |
| B2 | 35.3 | 0.45 gr | 0.42 gr | 40.0 | 42.7 | 59.9 | 27.8 | 1275.0 ± 777.8 | 5.4 | 4.0 | −3.5 | −11.9 |
| B3 | 33.2 | 0.47 gr | 0.44 gr | 39.5 | 47.2 | 55.2 | 32.1 | 1175.0 ± 176.7 | 4.9 | 4.2 | −9.2 | −13.3 |
